The source of these data is patent US20100137214.

For data set [1], the system named is HSACHV3.
The subject of data set [2] is C-terminally His-tagged hirudin variant 3 (HV3).
A further data set addresses AGPCHV3 (UniProt P02763).
The target in the next data set is T1, GSTcle3HV3.
T1 chain: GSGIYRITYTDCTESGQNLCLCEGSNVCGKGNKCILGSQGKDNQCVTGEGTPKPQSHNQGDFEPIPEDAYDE

In data set [3] the target is HSACHV3. This is another data set of the same source.

Sequence of AGPCHV3, P02763 (P02763 whole entry, looked up): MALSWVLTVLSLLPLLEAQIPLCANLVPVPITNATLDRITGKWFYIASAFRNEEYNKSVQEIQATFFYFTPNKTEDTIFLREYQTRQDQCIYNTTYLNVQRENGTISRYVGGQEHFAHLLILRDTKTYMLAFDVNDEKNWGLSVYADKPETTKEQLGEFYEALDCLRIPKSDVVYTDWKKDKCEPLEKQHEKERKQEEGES
Sequence of C-terminally His-tagged hirudin variant 3 (HV3) (chain, as listed by the source mutant): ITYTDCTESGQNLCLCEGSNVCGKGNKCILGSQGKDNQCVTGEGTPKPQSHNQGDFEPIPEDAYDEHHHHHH

Consider human α-thrombin, for which the “rate of thrombin cleavage of a chromogenic substrate, fusion protein 376 nM without plasmin” value is “In the absence of plasmin, neither fusion protein had substantial effects upon the thrombin activity” with HSACHV3 [1] and “In the absence of plasmin, neither fusion protein had substantial effects upon the thrombin activity” with AGPCHV3. Further, the “rate of thrombin-mediated chromogenic substrate cleavage, starting value for 1500 nM HSACHV3” value in the data set on HSACHV3 [1] is “The former reduced the rate of thrombin-mediated chromogenic substrate cleavage from 89.9% to 5.5%”. The “rate of thrombin-mediated chromogenic substrate cleavage, end value after 1500 nM HSACHV3 was combined with 600 nM plasmin (HV3 released)” value in data set [2] is given as “The former reduced the rate of thrombin-mediated chromogenic substrate cleavage from 89.9% to 5.5%”. In addition, the “% thrombin activity (chromogenic substrate) after reaction of HSAHV3 with plasmin” value in the data set on HSAHV3 is “thrombin inhibition was unaffected by the presence of HSAHV3 following reaction with plasmin”.

B1: plasmin (protein)
chain: KVYLSECKTGNGKNYRGTMSKTKNGITCQKWSSTSPHRPRFSPATHPSEGLEENYCRNPDNDPQGPWCYTTDPEKRYDYCDILECEEECMHCSGENYDGKISKTMSGLECQAWDSQSPHAHGYIPSKFPNKNLKKNYCRNPDRELRPWCFTTDPNKRWELCDIPRCTTPPPSSGPTYQCLKGTGENYRGNVAVTVSGHTCQHWSAQTPHTHNRTPENFPCKNLDENYCRNPDGKRAPWCHTTNSQVRWEYCKIPSCDSSPVSTEQLAPTAPPELTPVVQDCYHGDGQSYRGTSSTTTTGKKCQSWSSMTPHRHQKTPENYPNAGLTMNYCRNPDADKGPWCFTTDPSVRWEYCNLKKCSGTEASVVAPPPVVLLPDVETPSEEDCMFGNGKGYRGKRATTVTGTPCQDWAAQEPHRHSIFTPETNPRAGLEKNYCRNPDGDVGGPWCYTTNPRKLYDYCDVPQCAAPSFDCGKPQVEPKKCPGRVVGGCVAHPHSWPWQVSLRTRFGMHFCGGTLISPEWVLTAAHCLEKSPRPSSYKVILGAHQEVNLEPHVQEIEVSRLFLEPTRKDIALLKLSSPAVITDKVIPACLPSPNYVVADRTECFITGWGETQGTFGAGLLKEAQLPVIENKVCNRYEFLNGRVQSTELCAGHLAGGTDSCQGDSGGPLVCFEKDKYILQGVTSWGLGCARPNKPGVYVRVSRFVTWIEGVMRNN
Take B1: the “cleavage pattern by SDS-PAGE after plasmin digestion” value with GSTcle3HV3 was “plasmin-dependent polypeptide species were detected, one of which co-migrated with unfused GST, and the other, which migrated slightly more rapidly than Pichia pastoris-derived recombinant hexahisitidinylated HV3”. For the same molecule, in the data set with HSACHV3 [3], the “cleavage by plasmin, SDS-PAGE and autoradiography” value is recorded as “HSACHV3 was cleaved by plasmin over time, reaching near complete conversion”; the “time- and plasmin-dependent cleavage, Coomassie-stained SDS gel (1500 nM HSACHV3, 600 nM plasmin)” value is “A time- and plasmin-dependent cleavage pattern of both proteins is shown, yielding a single product for HSACHV3 and two products for AGPCHV3”. The “time- and plasmin-dependent cleavage, Coomassie-stained SDS gel (4000 nM AGPCHV3, 600 nM plasmin)” value with AGPCHV3, P02763 was “A time- and plasmin-dependent cleavage pattern of both proteins is shown, yielding a single product for HSACHV3 and two products for AGPCHV3”.
